Measurements: patent US20180044374A1
“And” between values parts separate entries of the source, which are not always exact repeats. Equal entries are not always repeated.

Key:
[1] = molecular target: human polyclonal IgG (Gammanorm) (human); assay: dynamic binding capacity; matrix A33, ligand 9.4 mg/ml
[2] = molecular target: human polyclonal IgG (Gammanorm) (human); assay: dynamic binding capacity; matrix C1, ligand […]
[3] = molecular target: human polyclonal IgG (Gammanorm) (human); assay: dynamic binding capacity; matrix A18, ligand 8.2 mg/ml
[4] = molecular target: human polyclonal IgG (Gammanorm) (human); assay: dynamic binding capacity; matrix A43, ligand 6.99 mg/ml
[5] = molecular target: human polyclonal IgG (Gammanorm) (human); assay: dynamic binding capacity; matrix A28, ligand 7.9 mg/ml
[6] = molecular target: human polyclonal IgG (Gammanorm) (human); assay: dynamic binding capacity; matrix A42, ligand […]
[7] = molecular target: human polyclonal IgG (Gammanorm) (human); assay: dynamic binding capacity; matrix A65a, ligand 6.6 mg/ml
[8] = molecular target: human polyclonal IgG (Gammanorm) (human); assay: dynamic binding capacity; matrix A38, ligand 11.34 mg/ml
[9] = molecular target: human polyclonal IgG (Gammanorm) (human); assay: dynamic binding capacity; matrix A28, ligand 15.8 mg/ml
[10] = molecular target: human polyclonal IgG (Gammanorm) (human); assay: dynamic binding capacity; matrix A38, ligand 7.5 mg/ml
[11] = molecular target: human polyclonal IgG (Gammanorm) (human); assay: dynamic binding capacity; matrix C2, ligand […]
[12] = molecular target: human polyclonal IgG (Gammanorm) (human); assay: dynamic binding capacity; matrix A40, ligand 6.1 mg/ml
[13] = molecular target: human polyclonal IgG (Gammanorm) (human); assay: dynamic binding capacity; matrix A18, ligand 13.4 mg/ml
[14] = molecular target: human polyclonal IgG (Gammanorm) (human); assay: dynamic binding capacity; matrix I1, ligand 11.2 mg/ml
[15] = molecular target: human polyclonal IgG (Gammanorm) (human); assay: dynamic binding capacity; matrix A62a, ligand 6.4 mg/ml
[16] = molecular target: human polyclonal IgG (Gammanorm) (human); assay: dynamic binding capacity; matrix A62b, ligand […]; conditions: ligand content 5.2 mg/ml
[17] = molecular target: human polyclonal IgG (Gammanorm) (human); assay: dynamic binding capacity; matrix A62a, ligand 7.5 mg/ml
[18] = molecular target: human polyclonal IgG (Gammanorm) (human); assay: dynamic binding capacity; matrix A41, ligand 8.83 mg/ml
[19] = molecular target: human polyclonal IgG (Gammanorm) (human); assay: dynamic binding capacity; matrix C2, ligand 10.5 mg/ml
[20] = molecular target: human polyclonal IgG (Gammanorm) (human); assay: dynamic binding capacity; matrix A63a, ligand 14.0 mg/ml
[21] = molecular target: human polyclonal IgG (Gammanorm) (human); assay: dynamic binding capacity; matrix A65a, ligand 13.6 mg/ml
[22] = molecular target: human polyclonal IgG (Gammanorm) (human); assay: dynamic binding capacity; matrix A62a, ligand 14.8 mg/ml
[23] = molecular target: human polyclonal IgG (Gammanorm) (human); assay: dynamic binding capacity; matrix A65b, ligand 8.8 mg/ml
[24] = molecular target: human polyclonal IgG (Gammanorm) (human); assay: dynamic binding capacity; matrix A29, ligand 7.3 mg/ml
[25] = molecular target: human polyclonal IgG (Gammanorm) (human); assay: dynamic binding capacity; matrix A39, ligand 6.96 mg/ml
[26] = molecular target: human polyclonal IgG (Gammanorm) (human); assay: dynamic binding capacity; matrix A32, ligand 13.3 mg/ml
[27] = molecular target: human polyclonal IgG (Gammanorm) (human); assay: dynamic binding capacity; matrix A42, ligand 6.72 mg/ml
[28] = molecular target: human polyclonal IgG (Gammanorm) (human); assay: dynamic binding capacity; matrix C4, ligand […]
[29] = molecular target: human polyclonal IgG (Gammanorm) (human); assay: dynamic binding capacity; ligand 16 mg/ml, before 1 M NaOH
[30] = molecular target: human polyclonal IgG (Gammanorm) (human); assay: dynamic binding capacity; matrix A41, ligand 5.0 mg/ml
[31] = molecular target: human polyclonal IgG (Gammanorm) (human); assay: dynamic binding capacity; matrix A63a, ligand 6.6 mg/ml
[32] = molecular target: human polyclonal IgG (Gammanorm) (human); assay: dynamic binding capacity; ligand 13 mg/ml, before 1 M NaOH
[33] = molecular target: human polyclonal IgG (Gammanorm) (human); assay: dynamic binding capacity; matrix I1, ligand 6.1 mg/ml
[34] = molecular target: human polyclonal IgG (Gammanorm) (human); assay: dynamic binding capacity; matrix A40, ligand 11.03 mg/ml
[35] = molecular target: human polyclonal IgG (Gammanorm) (human); assay: dynamic binding capacity; matrix C1, ligand 10.8 mg/ml
[36] = molecular target: human polyclonal IgG (Gammanorm) (human); assay: dynamic binding capacity; matrix A20, ligand […]
[37] = molecular target: human polyclonal IgG (Gammanorm) (human); assay: dynamic binding capacity; matrix A65a, ligand 13.1 mg/ml
[38] = molecular target: human polyclonal IgG (Gammanorm) (human); assay: dynamic binding capacity; matrix A32, ligand […]

Zvar(Q9A, N11E, Q40V, A42K, N43A, L44I)4 (designed binder)
Qb10% 2.4 min [1]: 51 mg/mL | Qb10% 6 min [1]: 58 mg/mL | Qb10% 2.4 min [2]: 38 mg/mL | Qb10% 6 min [2]: 47 mg/mL | Qb10% 2.4 min [3]: 52 mg/mL | Qb10% 6 min [3]: 59 mg/mL | Qb10% 2.4 min [4]: 33.4 mg/mL | Qb10% 6 min [4]: 49.8 mg/mL | Qb10% 2.4 min [5]: 42.4 mg/mL and 42 mg/mL | Qb10% 6 min [5]: 58.2 mg/mL and 58 mg/mL | Qb10% 2.4 min [6]: 32.2 mg/mL | Qb10% 6 min [6]: 57.8 mg/mL | Qb10% 2.4 min [7]: 42 mg/mL | Qb10% 6 min [7]: 47 mg/mL | Qb10% 2.4 min [8]: 48.1 mg/mL | Qb10% 6 min [8]: 72.8 mg/mL | Qb10% 2.4 min [9]: 37 mg/mL | Qb10% 6 min [9]: 67 mg/mL | Qb10% 2.4 min [10]: 44 mg/mL | Qb10% 6 min [10]: 58 mg/mL | Qb10% 2.4 min [11]: 39 mg/mL | Qb10% 6 min [11]: 46 mg/mL | Qb10% 2.4 min [12]: 49 mg/mL | Qb10% 6 min [12]: 59 mg/mL | Qb10% 6 min [13]: 63 mg/mL | Qb10% 2.4 min [14]: 57 mg/mL | Qb10% 6 min [14]: 68 mg/mL | Qb10% 2.4 min [15]: 43 mg/mL | Qb10% 6 min [15]: 45 mg/mL | Qb10% 2.4 min [16]: 40 mg/mL | Qb10% 2.4 min [17]: 47 mg/mL | Qb10% 6 min [17]: 56 mg/mL | Qb10% 2.4 min [18]: 38.5 mg/mL and 37.8 mg/mL and 35.1 mg/mL | Qb10% 6 min [18]: 56.8 mg/mL and 58.6 mg/mL and 57.2 mg/mL | Qb10% 2.4 min [19]: 42 mg/mL | Qb10% 6 min [19]: 57 mg/mL | Qb10% 2.4 min [20]: 48 mg/mL | Qb10% 6 min [20]: 56 mg/mL | Qb10% 2.4 min [21]: 52 mg/mL | Qb10% 6 min [21]: 61 mg/mL | Qb10% 2.4 min [22]: 55 mg/mL | Qb10% 6 min [22]: 62 mg/mL | Qb10% 2.4 min [23]: 49 mg/mL | Qb10% 6 min [23]: 56 mg/mL | Qb10% 2.4 min [24]: 36.3 mg/mL | Qb10% 6 min [24]: 51.8 mg/mL | Qb10% 2.4 min [25]: 41.9 mg/mL | Qb10% 6 min [25]: 54.7 mg/mL | Qb10% 2.4 min [26]: 37 mg/mL | Qb10% 6 min [26]: 66 mg/mL | Qb10% 2.4 min [27]: 33.6 mg/mL | Qb10% 6 min [27]: 50 mg/mL | Qb10% 2.4 min [28]: 59 mg/mL | Qb10% 6 min [28]: 67 mg/mL | Qb10%, 6 min, before incubation [29]: 73 mg/mL | Qb10% 2.4 min [30]: 35.6 mg/mL | Qb10% 6 min [30]: 46 mg/mL | Qb10% 2.4 min [31]: 40 mg/mL | Qb10% 6 min [31]: 44 mg/mL | Qb10%, 6 min, before incubation [32]: 79 mg/mL | Qb10% 2.4 min [33]: 45 mg/mL | Qb10% 6 min [33]: 51 mg/mL | Qb10% 2.4 min [34]: 55 mg/mL | Qb10% 6 min [34]: 73.8 mg/mL | Qb10% 2.4 min [35]: 43 mg/mL | Qb10% 6 min [35]: 60 mg/mL | Qb10% 2.4 min [36]: 49 mg/mL | Qb10% 6 min [36]: 67 mg/mL | Qb10% 2.4 min [37]: 56 mg/mL | Qb10% 6 min [37]: 64 mg/mL | Qb10% 2.4 min [38]: 40 mg/mL | Qb10% 6 min [38]: 57 mg/mL
